# Laboratory results taken from publication PMC4784862, “DNA Sequence Determinants Controlling Affinity, Stability and Shape of DNA Complexes Bound by the Nucleoid Protein Fis”.
# Key:
# Conditions in all cases: protein: recombinant; chain copies: 2; label: 5'-32P
# Fis WT [1] = biological target: T1, Fis WT (UniProt P0A6R3 1-98); assay: EMSA; t1/2 30 min; EMSA: 20 mM Hepes pH 7.5, 0.15 M NaCl, 5% glycerol, 0.5 mg/ml BSA, 1 mM EDTA, 1 mM DTT, 0.1 nM 32P 27 bp probe, 50 ug/ml poly dI/dC; temperature not stated
# T1 sequence (P0A6R3 whole entry): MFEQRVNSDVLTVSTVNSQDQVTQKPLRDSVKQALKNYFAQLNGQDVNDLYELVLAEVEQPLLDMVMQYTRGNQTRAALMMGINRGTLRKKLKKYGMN
# Fis WT [2] = biological target: T1, Fis WT; assay: EMSA; t1/2 36 min; EMSA: 20 mM Hepes pH 7.5, 0.15 M NaCl, 5% glycerol, 0.5 mg/ml BSA, 1 mM EDTA, 1 mM DTT, 0.1 nM 32P 27 bp probe, 50 ug/ml poly dI/dC; temperature not stated
# Fis WT [3] = biological target: T1, Fis WT; assay: EMSA; t1/2 25 min; EMSA: 20 mM Hepes pH 7.5, 0.15 M NaCl, 5% glycerol, 0.5 mg/ml BSA, 1 mM EDTA, 1 mM DTT, 0.1 nM 32P 27 bp probe, 50 ug/ml poly dI/dC; temperature not stated
# Fis WT [4] = biological target: T1, Fis WT; assay: EMSA; t1/2 38 min; EMSA: 20 mM Hepes pH 7.5, 0.15 M NaCl, 5% glycerol, 0.5 mg/ml BSA, 1 mM EDTA, 1 mM DTT, 0.1 nM 32P 27 bp probe, 50 ug/ml poly dI/dC; temperature not stated
# Fis WT [5] = biological target: T1, Fis WT; assay: EMSA; t1/2 44 min; EMSA: 20 mM Hepes pH 7.5, 0.15 M NaCl, 5% glycerol, 0.5 mg/ml BSA, 1 mM EDTA, 1 mM DTT, 0.1 nM 32P 27 bp probe, 50 ug/ml poly dI/dC; temperature not stated
binder,measurement,setting,value
F1±9C (dsDNA) DNA 1: AAATCTGTTTGAATTTTGAGCAGATTT DNA 2: AAATCTGCTCAAAATTCAAACAGATTT,Kd,Fis WT [1],0.3 ± 0.1 nM
F1±10A (dsDNA) DNA 1: AAAATTGTTTGAATTTTGAGCAATTTT DNA 2: AAAATTGCTCAAAATTCAAACAATTTT,Kd,Fis WT [2],0.5 ± 0.1 nM
F1±9G (dsDNA) DNA 1: AAATGTGTTTGAATTTTGAGCACATTT DNA 2: AAATGTGCTCAAAATTCAAACACATTT,Kd,Fis WT [3],0.6 ± 0.2 nM
F1±10G (dsDNA) DNA 1: AAAGTTGTTTGAATTTTGAGCAACTTT DNA 2: AAAGTTGCTCAAAATTCAAACAACTTT,Kd,Fis WT [4],0.5 ± 0.1 nM
F1±10C (dsDNA) DNA 1: AAACTTGTTTGAATTTTGAGCAAGTTT DNA 2: AAACTTGCTCAAAATTCAAACAAGTTT,Kd,Fis WT [5],0.3 ± 0.1 nM
